The supplement of paper PMC12042874
± gives the uncertainty stated by the source.

Experiment: amyloid nucleation score (Sup35N fusion, yeast selection) (log enrichment); library NNK1; higher = more nucleation; inactive = no reads after selection
Method in brief: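 For the nucleation score, DiMSum gave the log enrichment of output over input reads, centred on the mode score of non-aggregating sequences. Psi-negative yeast expressing Sup35N fused to peptides of 20 random codons were induced with 100 μM copper sulfate for 24 hours and grown 7 days at 30°C on medium lacking adenine and uracil. Input and output plasmid inserts were Illumina-sequenced, and sequences with under 100 input reads were excluded.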

Substance | amyloid nucleation score
RVLDLKWPCYMGSVNLASRR | 0.016 ± 0.74
RSGGTSSTALQQQLRFNRTR | 0.581 ± 0.33
RAHNKISDDTRAFMGSIFSE | -0.05 ± 1.4
RGGMF | -0.252 ± 0.67
GKMMVFRVFFRFVPSESWVI | -0.638 ± 0.52
NFFIWLMVFIGDFFDLVTSA | -0.94 ± 0.59
KSYNWDYGHLRVNYGGHMMI | -0.544 ± 1.4
FSVRGYSNLSAEDFINLKVP | -0.522 ± 1.4
YAYFVSWGVFVIENVFPYKY | -1.27 ± 0.66
LTRKTVRKTSKNRIGLHHQT | inactive
VIIYLMARSLKVAH | 0.453 ± 0.38
CNCAKSNVRCLFLFFDGQTR | 0.775 ± 0.92
PSNPFHCVMKARKSLNGIDR | -0.09 ± 0.29
RLIFEVFYLTFRVLT | -0.457 ± 0.39
MATSPFGERVPFIYLDHFCY | 0.009 ± 0.42
FVAISVSTIRQCGVCRGGTC | 4.29 ± 0.12
ILICKLHRRVIRGWNFRSDR | 0.086 ± 0.48
AFTGQCEEKIS | -0.226 ± 0.42
SVRYYLLYHNFIMSSADKLS | 6.485 ± 0.05
IWDCLFPSSSAMSYPVDPKA | 0.547 ± 0.42
GHSRSSGLLKKFCVKSRQDA | 0.234 ± 0.66
PIYGFCSIALGSMLIIPRLL | -1.05 ± 0.77
SSLGIGFAPLISSFISC | -0.429 ± 0.64
SHRWWIM | -0.597 ± 1.1
FFVVMVIDNKHPQQENSRIR | 1.74 ± 0.34

Substance | amyloid nucleation score
LPTIHICLRSAHTRWFA | -0.438 ± 0.87
YLLYEVSVLNYRPL | -0.285 ± 0.32
RVAPKGNRARDHVDSSSECS | 2.14 ± 0.18
GQAWKDAVQNYDMLAYMLKG | -0.375 ± 0.54
FSGCGWYRTVDYGGP | inactive
WLESRQPAEESVVVWNERVG | -0.831 ± 1.3
TQVWTQRCPCKEASRPGLRT | -1.19 ± 2.7
QCYIGVKYHSALVWDHTPEA | 2.29 ± 0.61
QVSTNLVWDL | 0.614 ± 1.2
HGLLHQVSVMPGIPSMAFNI | -0.016 ± 0.68
VFFNLIKRWEVVREDTM | -0.426 ± 0.35
KGKAAT | -0.534 ± 0.87
LVFKLLVLDHKSFGLLMVDS | -0.355 ± 0.63
DGLLTGLQDRPNSSRFKYVM | 0.421 ± 0.33
LKSLLNSSGVTLGEVLRMGV | -0.091 ± 0.45
TLCFQTISPRRPQLRWTWAH | 0.875 ± 0.61
DCQVAVPLRIVKANSVILCG | 0.26 ± 0.37
IYTLGKKGMNHHDVGQWLFT | 1.55 ± 0.5
SVSLFMITVFNVTC | 2.4 ± 0.14
QRSLLDDRYNAICSSNTNVE | 0.184 ± 0.35
VLLSGDIRCDTSVSVTGLSH | -0.061 ± 0.3
HNWCRSSRRVVMSFMCKTKL | 0.412 ± 1.1
NGVRYTVRLFMVLWR | -1.58 ± 2.4
LLDLDVTLIRNHWWFKSLLA | -0.047 ± 0.41
MVVFRSY | -2.07 ± 1.9

Substance | amyloid nucleation score
QRVGCKW | -0.771 ± 0.88
RYCVHIWRCDSLNHHN | 0.349 ± 0.41
CQFDVGAQLAYYGR | inactive
YLVTYVLSIRNCGIYIWIRR | 0.413 ± 0.49
TSRGSGSVWLDFFSHHGKIG | -0.218 ± 1.4
QHVMPWPWWMGLSSLDRWYL | 1.44 ± 0.49
AFIDDRAVTCCYQTVLLCER | -0.341 ± 0.48
TLMRCVFLLYYPCGYIKSDL | 0.551 ± 0.31
DKLKLNRVRSSISSYNKQNK | 1.06 ± 0.28
NEAMN | -0.21 ± 0.37
YRGLGFVERESRDRG | -0.418 ± 0.8
CPRPYDRSALSRKLY | 0.713 ± 0.32
VCQLVILGFFLRIVTMCWLW | inactive
QFSRTRFFICGLGRSAPAVR | 1.53 ± 0.85
QRCYCGSCDWLRAMFVCWGL | inactive
PALDAYSQKFELTCCLDTLH | inactive
DNRLEYSAGLVRVTRDAKGE | -0.106 ± 0.97
RLAQYHMYIKFETGYN | 1.23 ± 0.36
LWGWGFSSEANPIGGRGILN | 0.277 ± 0.53
EPFGLGFRRNDLSYANRVGS | -0.887 ± 1.3
FYFRNSSGF | 2.49 ± 0.58
RTRSGRVICNGFPRYSTTAA | inactive
FISRCSFAGSCVK | -1.27 ± 1.7
FCLYISTIDID | 0.556 ± 0.59
NIKANQLKGTWKRRTMYRWS | -0.271 ± 0.97

Substance | amyloid nucleation score
KAPNRE | -0.063 ± 0.66
VASGSCFFRDPKIVIMSFLW | 3.34 ± 0.088
MDSRAVYYF | inactive
VKRRLSHYAHMDGFVCNIR | 0.286 ± 1.4
VAGCNVDIDVNMSCRGDMWK | 2.81 ± 0.12
SADLCLMWSGTNC | inactive
SVPDVVSYTKDTVVFNFGFT | 3.31 ± 0.083
GSCFLCKI | 0.686 ± 0.53
PMLNFEIMVRHDRRRLYKVC | 0.714 ± 0.42
WEKFIVAQIMVGHFGWVFQT | 5.36 ± 0.078
EMRNLNLYVLAEPNGVGNSA | inactive
CVIRKSLFKCQFSMIRESWV | 0.298 ± 0.31
RSFEGKRFNVGWLFASATFM | 0.157 ± 0.46
LQTIYFLYE | 2.25 ± 0.13
RAFNRIINHRTEGNNPYYFL | inactive
GALSNSSMWFGMYVNPLGTY | inactive
HDSSF | -0.038 ± 0.56
LKLYINIIVVNYNLLSICSH | -0.504 ± 0.24
FWANH | inactive
HMWIEFSAVLFSYDMASSNV | -0.417 ± 0.52
TLLPIKHSCHGNWINQLYGT | -0.485 ± 0.32
GVLRSSTSTVRGSCAGFHRL | 0.29 ± 0.43
DMDTQEFLYCSSVKFGSTKD | 5.408 ± 0.047
FFVKMHIFSFFQVATVVYMH | 0.043 ± 0.33
IYNLDWSF | -0.99 ± 1.3

Substance | amyloid nucleation score
LYPSISGFFCCKWGSVVNGL | inactive
AYSVRICLDFGKNG | inactive
GREVGYVKLMDRPWPYRPAE | 0.191 ± 0.44
LEINIVACVDTA | -0.559 ± 0.36
EVSIFGDRIHIELHLVGEVL | -1.12 ± 2.1
SEMPIFYLWDPQSGQRSWDG | 0.036 ± 0.93
ACEKLQVNW | 0.329 ± 0.35
YYCLKPRGQSIGYGGNCLKA | 0.134 ± 0.83
VIHGC | -0.14 ± 0.27
TRMGEL | -0.089 ± 0.76
VLKHCWVGIFAQW | 9.006 ± 0.052
IPKVIGWFTVVTTGVVVDIS | 1.27 ± 0.7
YLRLFFVRCGHPDSETSYRS | 0.418 ± 0.33
KLGTPLRQSDVS | -0.461 ± 0.59
VSNTHVNGGWSRRNGQWLGV | -0.708 ± 0.45
IGRRDWH | 0.925 ± 0.49
YGVNHRMYSKWHSVGAWMCR | 1.21 ± 0.66
CILRRMDADFIFIVCVDCFG | -0.055 ± 0.4
FIEHQTRSFDKILSYAWLEA | 0.379 ± 0.61
IRCLSMIWVTKDVLIIWRSQ | 0.159 ± 0.93
PQLRLLPGVLGNPGNGHSRI | 4.59 ± 0.098
LGWRSTFCMKYTSQSLSLPR | -0.221 ± 0.58
CILLVFEDMWVSIV | -0.53 ± 0.36
VGHNGIFYC | -0.063 ± 0.29
TVVESRTPILVYFMGCRVTY | 3.31 ± 0.11
